Consider 16 molecules from patent US20150353933, “APTAMER AGAINST MIDKINE AND APPLICATIONS THEREOF” (RIBOMIC INC., published 2015).

The term IC50 denotes the midpoint of a concentration-inhibition curve. Low readings indicate greater potency, high ones weaker potency.

The target of data set [1] is T1, midkine (AP-MK) (Homo sapiens, UniProt P21741 P21741:23-143).
T1 chain: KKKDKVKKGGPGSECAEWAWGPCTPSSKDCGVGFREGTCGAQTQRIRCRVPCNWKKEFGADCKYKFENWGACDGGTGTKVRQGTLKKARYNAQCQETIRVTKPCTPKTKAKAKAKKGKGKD
The data set can be described thus: inhibition; AP-MK binding to HepG2 cells. The note with it: tags: alkaline phosphatase fusion, APtag-5 vector (GenHunter), 293T culture supernatant. How it is done:
(§1) Using the above-mentioned AP-MK, a binding inhibitory experiment relative to TNB1 cell, which is a human neuroblastoma cell, was performed. TNB1 cells were seeded at 1×10⁵ cells/well on a 6-well plate coated with collagen I. The next day, the cells were washed with 1 mL of HBHA (HBSS+0.5 mg/mL BSA+20 mM HEPES pH 7.0), 1 U/mL AP or AP-MK, and further, the aptamer shown in SEQ ID NO: 7-1 at a final concentration of 100 nM were added and the mixture was maintained at room temperature for 90 min. After washing 5 times with 1 mL of HBHA, 200 μL of Cell Lysis Buffer (manufactured by GenHunter) was added and the mixture was stirred for 5 min. The cells were scraped with a Scraper and placed in an Eppendorf tube, vortexed for 10 sec and centrifuged at 15000 rpm for 2 min. The supernatant was recovered, and heated at 65° C. for 10 min to inactivate endogenous AP. Using 50 μL, color development was performed in the same manner as above (15 min) and the activity of AP was calculated.
(§2) An altered form of SEQ ID NO: 7-1 was produced, and AP-MK binding inhibitory experiment was performed using HepG2 and TNB1 cells and in the same manner as above. The sequences of the altered forms actually produced are shown below. While Poly dA for BIAcore measurement is added to the 3′-terminus of the aptamers shown in SEQ ID NO: 9 and SEQ ID NO: 9-1-5, an influence on the activity is not expected. The 50% inhibitory concentration (IC₅₀) was determined from the concentrations at two, above and below points sandwiching the 50% inhibitory activity (Table 2).

For data set [2], the target named is T1, midkine (AP-MK). The data set can be described thus: inhibition; AP-MK binding to TNB1 cells. The following applies: tags: alkaline phosphatase fusion, APtag-5 vector (GenHunter), 293T culture supernatant. As for the experimental part:
as §1, §2

The target in data set [3] is T1, midkine (AP-MK). The experiment in a line: inhibition; AP-MK binding to HepG2, 500 nM aptamer. The note with it: tags: alkaline phosphatase fusion, APtag-5 vector (GenHunter), 293T culture supernatant. How it is done: as §1
An experiment similar to the above was performed using HepG2 cells which are human liver cancer-derived cells. It is already known that MK is deeply involved in the growth and inhibition of apoptosis of HepG2 cells (Ohuchida et al., Cancer 100, 2430-2436, 2004; Dai et al., World J. Gastroenterol. 15, 1966-1972, 2009). When the aptamer was added to the system, the binding of AP-MK and HepG2 was inhibited (Table 1).

For data set [4], the target named is T2, midkine (MK) (Homo sapiens, UniProt P21741 P21741:21-143).
T2 sequence: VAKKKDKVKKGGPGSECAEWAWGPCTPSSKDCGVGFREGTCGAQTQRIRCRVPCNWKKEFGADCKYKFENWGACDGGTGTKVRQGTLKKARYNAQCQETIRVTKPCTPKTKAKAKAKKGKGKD
The data set can be described thus: SPR; confirmed MK binding, as in Example 3. The note with it: tags: produced in yeast. As for the experimental part:
The binding activities of the oligonucleotides shown by SEQ ID NO:1 to 6 obtained in Examples 1 and 2 for MK were evaluated by a surface plasmon resonance method. The measurements were performed using BIAcore2000, manufactured by BIAcore. The sensor chip used was the SA chip, which had streptavidin immobilized thereon. Bound thereto was about 1000 RU of a 16-nucleotide Poly dT with biotin bound to the 5′ end thereof. […] 70 μL of MK for analyte, prepared at 0.5 μM, was injected.
Those aptamers were evaluated by the surface plasmon resonance method in the same manner as in Example 3, and they were confirmed to have MK binding activity.

B1: SEQ ID NO: 9 (mixed)
RNA: GCCAUCGCAAUGGUGAGUGGUUUAUCCGCCUGCGCAUGGCAAAAAAAAAAAAAAAA
modifications: 2'-OMe at 1-3 and 38-40; 2'-F at all other pyrimidines; 3' 16-nt poly dA (DNA)
For the molecule B1, the half-maximal inhibitory concentration (IC50) in data set [1] was 3.3 nM.

B2: SEQ ID NO: 9-5 (mixed)
RNA: GCCAUCGCAAUGGUGAGUGGUUUAUCCGCCUGCGCAUGGCAAAAAAAAAAAAAAAA
modifications: 2'-OMe at C2,C3,C40 and RNA purines except G15,A16,G17 (2'-OH); 2'-F at all other pyrimidines; 3' 16-nt poly dA (DNA)
Consider B2, for which, in data set [1], the 50% inhibitory concentration (IC50) was found to be 19 nM.

B3: SEQ ID NO: 9-1 (mixed)
RNA: GCCAUCGCAAUGGUGAGUGGUUUAUCCGCCUGCGCAUGGCAAAAAAAAAAAAAAAA
modifications: 2'-OMe at C2,C3,C40 and RNA purines except G15,A16,G17,A24 (2'-OH); 2'-F at all other pyrimidines; 3' 16-nt poly dA (DNA)
In the case of B3, the IC50 in data set [1] amounted to 1.6 nM. This IC50 lies about 12-fold lower than the previous one.

B4: SEQ ID NO: 9-4 (mixed)
RNA: GCCAUCGCAAUGGUGAGUGGUUUAUCCGCCUGCGCAUGGCAAAAAAAAAAAAAAAA
modifications: 2'-OMe at C2,C3,C40 and RNA purines except G15,A16,A24 (2'-OH); 2'-F at all other pyrimidines; 3' 16-nt poly dA (DNA)
As for B4, the IC50 in data set [1] stood at 4.1 nM. This IC50 is about 2.6-fold higher than that of the molecule before.

B5: SEQ ID NO: 9-2 (mixed)
RNA: GCCAUCGCAAUGGUGAGUGGUUUAUCCGCCUGCGCAUGGCAAAAAAAAAAAAAAAA
modifications: 2'-OMe at C2,C3,C40 and RNA purines except A16,G17,A24 (2'-OH); 2'-F at all other pyrimidines; 3' 16-nt poly dA (DNA)
For the molecule B5, in data set [1], the IC50 was found to be 13 nM.

B6: SEQ ID NO: 9-3 (mixed)
RNA: GCCAUCGCAAUGGUGAGUGGUUUAUCCGCCUGCGCAUGGCAAAAAAAAAAAAAAAA
modifications: 2'-OMe at C2,C3,C40 and RNA purines except G15,G17,A24 (2'-OH); 2'-F at all other pyrimidines; 3' 16-nt poly dA (DNA)
Molecule B6 displayed an IC50 in data set [1] of 3 nM.
Take GCCAUCGCAAUGGUGAGUGGUUUAUCCGCCUGCGCAUGGC (ssRNA, 2'-OMe at 1-3 and 38-40; 2'-F at all other pyrimidines; other purines 2'-OH) [SEQ ID NO: 7-1]: the half-inhibitory concentration (IC50) was determined as 18 nM in data set [2] and 6 nM in data set [1]. In addition, the activity in data set [3] was found to be 93 % inhibition. In data set [4], the binding result was “binds”.
Regarding GCCAUCGCAAUGGUGAGUGGUUUAUCCGCCUGCGCAUGGC (ssRNA, 5' 40PEG2ts; 3' idT; 2'-OMe at 1-3 and 38-40; 2'-F at all other pyrimidines) [SEQ ID NO: 7-2], the IC50 was 26 nM in data set [2] and 4.9 nM in data set [1].

B7: SEQ ID NO: 7-3 (ssRNA)
RNA: GCCAUCGCAAUGGUGAGUGGUUUAUCCGCCUGCGCAUGGC
modifications: 5' 40PEG2ts; 3' idT; 2'-OMe at 1-13,19,20,23,28,30-40; 2'-F at U14,U18,U21,U22,U25,C26,C27,C29; 2'-OH at G15,A16,G17,A24
Consider B7, for which the IC50 in data set [2] was found to be 11 nM; in data set [1], 1.7 nM.

B8: SEQ ID NO: 7-5 (ssRNA)
RNA: GCCAUCGCAAUGGUGAGUGGUUUAUCCGCCUGCGCAUGGC
modifications: 3' idT; 2'-OMe at 1-13,16,19,20,23,28,30-40; 2'-F at U14,U18,U21,U22,U25,C26,C27,C29; 2'-OH at G15,G17,A24
In turn, B8 displayed an IC50 in data set [1] below 2 nM.

B9: SEQ ID NO: 7-9 (ssRNA)
RNA: GCCAUCGCAAUGGUGAGUGGUUUAUCCGCCUGCGCAUGGC
modifications: 3' idT; 2'-OMe at 1-13,16,17,19,20,23,28,30-40; 2'-F at U14,U18,U21,U22,U25,C26,C27,C29; 2'-OH at G15,A24
In the case of B9, the half-maximal inhibitory concentration (IC50) in data set [1] amounted to 4.7 nM. This counts as single-digit nanomolar.

B10: SEQ ID NO: 7-7 (ssRNA)
RNA: GCCAUCGCAAUGGUGAGUGGUUUAUCCGCCUGCGCAUGGC
modifications: 3' idT; 2'-OMe at 1-13,16,19,20,23,27,28,30-40; 2'-F at U14,U18,U21,U22,U25,C26,C29; 2'-OH at G15,G17,A24
In data set [1], B10 had an IC50 below 2 nM.

B11: SEQ ID NO: 7-4 (ssRNA)
RNA: GCCAUCGCAAUGGUGAGUGGUUUAUCCGCCUGCGCAUGGC
modifications: 5' 40PEG2ts; 3' idT; 2'-OMe at C2,C3,C40 and all purines except G15,A16,G17,A24 (2'-OH); 2'-F at all other pyrimidines
With B11, the IC50 in data set [2] was 18 nM; in data set [1], 3.6 nM.
For GCCAUCGCAAUGGUGAGUGGUUUAUCCGCCUGCGCAUGGC (ssRNA, 2'-F pyrimidines) [SEQ ID NO: 7], the binding result in data set [4] is listed as “binds”.

B12: SEQ ID NO: 7-6 (ssRNA)
RNA: GCCAUCGCAAUGGUGAGUGGUUUAUCCGCCUGCGCAUGGC
modifications: 3' idT; 2'-OMe at 1-14,16,19,20,23,28,30-40; 2'-F at U18,U21,U22,U25,C26,C27,C29; 2'-OH at G15,G17,A24
Molecule B12 returned an IC50 in data set [1] below 2 nM.

B13: SEQ ID NO: 7-8 (ssRNA)
RNA: GCCAUCGCAAUGGUGAGUGGUUUAUCCGCCUGCGCAUGGC
modifications: 3' idT; 2'-OMe at 1-13,16,19,20,23,28-40; 2'-F at U14,U18,U21,U22,U25,C26,C27; 2'-OH at G15,G17,A24
The molecule B13 had an IC50 in data set [1] below 2 nM.
